± gives the standard deviation of the averaged measurements.
Assay: total protein half-life in vivo (active degradation + dilution); higher = more stable protein
[1] = E. coli NCM3722 delta-clpP delta-lon delta-hslV, growth: N-lim chemostat, doubling time 6 h
[2] = E. coli NCM3722 delta-clpP, growth: N-lim chemostat, doubling time 6 h
[3] = E. coli NCM3722 delta-hslV, growth: N-lim chemostat, doubling time 6 h
[4] = E. coli NCM3722 delta-lon, growth: N-lim chemostat, doubling time 6 h
[5] = E. coli NCM3722 delta-smpB, growth: N-lim chemostat, doubling time 6 h
[6] = wild type E. coli NCM3722, growth: C-lim chemostat, doubling time 3 h
[7] = wild type E. coli NCM3722, growth: C-lim chemostat, doubling time 6 h
[8] = wild type E. coli NCM3722, growth: C-lim chemostat, doubling time 12 h
[9] = wild type E. coli NCM3722, growth: N-lim chemostat, doubling time 6 h
[10] = wild type E. coli NCM3722, growth: N-lim chemostat, doubling time 12 h
[11] = wild type E. coli NCM3722, growth: P-lim chemostat, doubling time 6 h
[12] = wild type E. coli NCM3722, growth: P-lim chemostat, doubling time 12 h

| Sequence | total protein half-life in vivo [1] | total protein half-life in vivo [2] | total protein half-life in vivo [3] | total protein half-life in vivo [4] | total protein half-life in vivo [5] | total protein half-life in vivo [6] | total protein half-life in vivo [7] | total protein half-life in vivo [8] | total protein half-life in vivo [9] | total protein half-life in vivo [10] | total protein half-life in vivo [11] | total protein half-life in vivo [12] |
| --- | --- | --- | --- | --- | --- | --- | --- | --- | --- | --- | --- | --- |
| MRIGIDLGGTKTEVIALGDAGEQLYRHRLPTPRDDYRQTIETIATLVDMAEQATGQRGTVGMGIPGSISPYTGVVKNANSTWLNGQPFDKDLSARLQREVRLANDANCLAVSEAVDGAAAGAQTVFAVIIGTGCGAGVAFNGRAHIGGNGTAGEWGHNPLPWMDEDELRYREEVPCYCGKQGCIETFISGTGFAMDYRRLSGHALKGSEIIRLVEESDPVAELALRRYELRLAKSLAHVVNILDPDVIVLGGGMSNVDRLYQTVGQLIKQFVFGGECETPVRKAKHGDSSGVRGAAWLWPQE | 5.21 ± 0.15 h | 5.38 ± 0.09 h | 6.33 ± 1.9 h | 5.67 ± 0.31 h | 5.3 ± 0.66 h | 2.8 ± 0.4 h | 5.8 ± 0.29 h | 11.8 ± 2.8 h | 5.18 ± 0.18 h | 9.94 ± 4 h | 6.21 ± 0.56 h | 11.7 ± 0.5 h |
| MTHIRIEKGTGGWGGPLELKATPGKKIVYITAGTRPAIVDKLAQLTGWQAIDGFKEGEPAEAEIGVAVIDCGGTLRCGIYPKRRIPTINIHSTGKSGPLAQYIVEDIYVSGVKEENITVVGDATPQPSSVGRDYDTSKKITEQSDGLLAKVGMGMGSTVAVLFQSGRDTIDTVLKTILPFMAFVSALIGIIMASGLGDWIAHGLAPLASHPLGLVMLALICSFPLLSPFLGPGAVIAQVIGVLIGVQIGLGNIPPHLALPALFAINAQAACDFIPVGLSLAEARQDTVRVGVPSVLVSRFLTGAPTVLIAWFVSGFIYQ |  | 5.44 h |  | 5.5 h |  | 2.06 ± 0.099 h | 4.93 h |  | 4.5 h |  |  |  |
| MNLTLTRRLWMGFALMALLTLTSTLVGWYNLRFISQVEKDNTQALIPTMNMARQLSEASAWELFAAQNLTSADNEKMWQAQGRMLTAQSLKINALLQALREQGFDTTAIEQQEQEISRSLRQQGELVGQRLQLRQQQQQLSQQIVAAADEIARLAQGQANNATTSAGATQAGIYDLIEQDQRQAAESALDRLIDIDLEYVNQMNELRLSALRVQQMVMNLGLEQIQKNAPTLEKQLNNAVKILQRRQIRIEDPGVRAQVATTLTTVSQYSDLLALYQQDSEISNHLQTLAQNNIAQFAQFSSEVSQLVDTIELRNQHGLAHLEKASARGQYSLLLLGMVSLCALILILWRVVYRSVTRPLAEQTQALQRLLDGDIDSPFPETAGVRELDTIGRLMDAFRSNVHALNRHREQLAAQVKARTAELQELVIEHRQARAEAEKASQAKSAFLAAMSHEIRTPLYGILGTAQLLADNPALNAQRDDLRAITDSGESLLTILNDILDYSAIEAGGKNVSVSDEPFEPRPLLESTLQLMSGRVKGRPIRLATAIADDMPCALMGDPRRIRQVITNLLSNALRFTDEGYIILRSRTDGEQWLVEVEDSGCGIDPAKLAEIFQPFVQVSGKRGGTGLGLTISSRLAQAMGGELSATSTPEVGSCFCLRLPLRVATAPVPKTVNQAVRLDGLRLLLIEDNPLTQRITIEMLKTSGAQIVAVGNAAQALETLQNSEPFAAALVDFDLPDIDGITLARQLAQQYPSLVLIGFSAHVIDETLRQRTSSLFRGIIPKPVPREVLGQLLAHYLQLQVNNDQSLDVSQLNEDAQLMGTEKIHEWLVLFTQHALPLLDEIDIARASQDSEKIKRAAHQLKSSCSSLGMHIASQLCAQLEQQPLSAPLPHEEITRSVAALEAWLHKKDLNAI | 3.75 h | 4.08 h |  | 4.54 ± 0.12 h | 4.12 ± 0.42 h | 2.81 h |  | 6.76 h | 5.462 ± 0.037 h | > 16 h | 6.79 ± 1.1 h | 10.3 ± 0.94 h |
| MMKNILAIQSHVVYGHAGNSAAEFPMRRLGANVWPLNTVQFSNHTQYGKWTGCVMPPSHLTEIVQGIAAIDKLHTCDAVLSGYLGSAEQGEHILGIVRQVKAANPQAKYFCDPVMGHPEKGCIVAPGVAEFHVRHGLPASDIIAPNLVELEILCEHAVNNVEEAVLAARELIAQGPQIVLVKHLARAGYSRDRFEMLLVTADEAWHISRPLVDFGMRQPVGVGDVTSGLLLVKLLQGATLQEALEHVTAAVYEIMVTTKAMQEYELQVVAAQDRIAKPEHYFSATKL |  |  | 2.01 ± 0.45 h | 1.63 ± 0.039 h | 1.73 h | 2.89 ± 0.033 h | 5 ± 1.8 h | 5.86 ± 0.53 h | 1.832 ± 0.0067 h | 2.45 h | 4.49 ± 0.085 h | 8.09 ± 0.6 h |
| MIKKIGVLTSGGDAPGMNAAIRGVVRSALTEGLEVMGIYDGYLGLYEDRMVQLDRYSVSDMINRGGTFLGSARFPEFRDENIRAVAIENLKKRGIDALVVIGGDGSYMGAMRLTEMGFPCIGLPGTIDNDIKGTDYTIGFFTALSTVVEAIDRLRDTSSSHQRISVVEVMGRYCGDLTLAAAIAGGCEFVVVPEVEFSREDLVNEIKAGIAKGKKHAIVAITEHMCDVDELAHFIEKETGRETRATVLGHIQRGGSPVPYDRILASRMGAYAIDLLLAGYGGRCVGIQNEQLVHHDIIDAIENMKRPFKGDWLDCAKKLY [P0A796] | 4.43 ± 0.51 h | 3.9 ± 0.11 h | 4.03 ± 0.12 h | 4.146 ± 0.0074 h | 3.89 ± 0.13 h | 3 ± 0.15 h | 5.83 ± 0.099 h | 10.3 ± 0.71 h | 3.64 ± 0.18 h | 5.77 ± 0.15 h | 5.69 ± 0.36 h | 11.7 ± 0.9 h |
| MTPLRVFRKTTPLVNTIRLSLLPLAGLSFSAFAAQVNIAPGSLDKALNQYAAHSGFTLSVDASLTRGKQSNGLHGDYDVESGLQQLLDGSGLQVKPLGNNSWTLEPAPAPKEDALTVVGDWLGDARENDVFEHAGARDVIRREDFAKTGATTMREVLNRIPGVSAPENNGTGSHDLAMNFGIRGLNPRLASRSTVLMDGIPVPFAPYGQPQLSLAPVSLGNMDAIDVVRGGGAVRYGPQSVGGVVNFVTRAIPQDFGIEAGVEGQLSPTSSQNNPKETHNLMVGGTADNGFGTALLYSGTRGSDWREHSATRIDDLMLKSKYAPDEVHTFNSLLQYYDGEADMPGGLSRADYDADRWQSTRPYDRFWGRRKLASLGYQFQPDSQHKFNIQGFYTQTLRSGYLEQGKRITLSPRNYWVRGIEPRYSQIFMIGPSAHEVGVGYRYLNESTHEMRYYTATSSGQLPSGSSPYDRDTRSGTEAHAWYLDDKIDIGNWTITPGMRFEHIESYQNNAITGTHEEVSYNAPLPALNVLYHLTDSWNLYANTEGSFGTVQYSQIGKAVQSGNVEPEKARTWELGTRYDDGALTAEMGLFLINFNNQYDSNQTNDTVTARGKTRHTGLETQARYDLGTLTPTLDNVSIYASYAYVNAEIREKGDTYGNLVPFSPKHKGTLGVDYKPGNWTFNLNSDFQSSQFADNANTVKESADGSTGRIPGFMLWGARVAYDFGPQMADLNLAFGVKNIFDQDYFIRSYDDNNKGIYAGQPRTLYMQGSLKF |  | 6.44 ± 0.23 h |  | 6.48 h | > 8 h | 3.66 h |  |  | 5.3 ± 0.92 h | > 16 h |  |  |
| MSFFHASQRDALNQSLAEVQGQINVSFEFFPPRTSEMEQTLWNSIDRLSSLKPKFVSVTYGANSGERDRTHSIIKGIKDRTGLEAAPHLTCIDATPDELRTIARDYWNNGIRHIVALRGDLPPGSGKPEMYASDLVTLLKEVADFDISVAAYPEVHPEAKSAQADLLNLKRKVDAGANRAITQFFFDVESYLRFRDRCVSAGIDVEIIPGILPVSNFKQAKKFADMTNVRIPAWMAQMFDGLDDDAETRKLVGANIAMDMVKILSREGVKDFHFYTLNRAEMSYAICHTLGVRPGL [P0AEZ1] | 3.64 ± 0.65 h | 3.18 ± 0.53 h | 2.96 ± 0.52 h | 3.54 ± 0.14 h | 3.16 ± 0.31 h | 2.99 ± 0.18 h | 4.97 ± 0.25 h | 8.59 ± 0.26 h | 3.02 ± 0.1 h | 4.47 ± 0.053 h | 5.51 ± 0.12 h | 10.7 ± 0.34 h |
| MSNRKYFGTDGIRGRVGDAPITPDFVLKLGWAAGKVLARHGSRKIIIGKDTRISGYMLESALEAGLAAAGLSALFTGPMPTPAVAYLTRTFRAEAGIVISASHNPFYDNGIKFFSIDGTKLPDAVEEAIEAEMEKEISCVDSAELGKASRIVDAAGRYIEFCKATFPNELSLSELKIVVDCANGATYHIAPNVLRELGANVIAIGCEPNGVNINAEVGATDVRALQARVLAEKADLGIAFDGDGDRVIMVDHEGNKVDGDQIMYIIAREGLRQGQLRGGAVGTLMSNMGLELALKQLGIPFARAKVGDRYVLEKMQEKGWRIGAENSGHVILLDKTTTGDGIVAGLQVLAAMARNHMSLHDLCSGMKMFPQILVNVRYTAGSGDPLEHESVKAVTAEVEAALGNRGRVLLRKSGTEPLIRVMVEGEDEAQVTEFAHRIADAVKAV | 6.02 ± 0.36 h | 6.03 ± 0.15 h | 5.92 ± 0.21 h | 6.65 ± 0.13 h | 5.71 ± 0.24 h | 3.24 ± 0.19 h | 6.27 ± 0.035 h | 12.62 ± 0.093 h | 6.08 ± 0.13 h | 11.8 ± 0.54 h | 6.24 ± 0.16 h | 13.8 ± 0.27 h |
| MKVTFEQLKAAFNRVLISRGVDSETADACAEMFARTTESGVYSHGVNRFPRFIQQLENGDIIPDAQPKRITSLGAIEQWDAQRSIGNLTAKKMMDRAIELAADHGIGLVALRNANHWMRGGSYGWQAAEKGYIGICWTNSIAVMPPWGAKECRIGTNPLIVAIPSTPITMVDMSMSMFSYGMLEVNRLAGRQLPVDGGFDDEGNLTKEPGVIEKNRRILPMGYWKGSGMSIVLDMIATLLSDGASVAEVTQDNSDEYGISQIFIAIEVDKLIDGPTRDAKLQRIMDYVTSAERADENQAIRLPGHEFTTLLAENRRNGITVDDSVWAKIQAL |  |  |  |  |  | 2.77 ± 0.16 h | 5.23 ± 0.17 h | 9.43 ± 1.9 h |  |  |  |  |

Reference: the supplement of paper PMC11246515
